According to publication PMC11830286, “Protein identification using Cryo-EM and artificial intelligence guides improved sample purification” (Journal of Structural Biology: X, 2025):

Target: the molecule itself
Test: cryo-EM structure; single particle analysis of the SEC peak of the nanoparticle preparation purified without glycine or arginine; octahedral symmetry enforced, 2.51 Å; about 0.3 mg/mL, buffer with DDM

B1: dihydrolipoamide succinyltransferase (DLST) (enzyme, E. coli BL21 (DE3), UniProt P0AFG6 1-405, looked up)
chain: MSSVDILVPDLPESVADATVATWHKKPGDAVVRDEVLVEIETDKVVLEVPASADGILDAVLEDEGTTVTSRQILGRLREGNSAGKETSAKSEEKASTPAQRQQASLEEQNNDALSPAIRRLLAEHNLDASAIKGTGVGGRLTREDVEKHLAKAPAKESAPAAAAPAAQPALAARSEKRVPMTRLRKRVAERLLEAKNSTAMLTTFNEVNMKPIMDLRKQYGEAFEKRHGIRLGFMSFYVKAVVEALKRYPEVNASIDGDDVVYHNYFDVSMAVSTPRGLVTPVLRDVDTLGMADIEKKIKELAVKGRDGKLTVEDLTGGNFTITNGGVFGSLMSTPIINPPQSAILGMHAIKDRPMAVNGQVEILPMMYLALSYDHRLIDGRESVGFLVTIKELLEDPTRLLLDV
notes: dihydrolipoamide succinyltransferase (DLST) of E. coli BL21(DE3), UniProt A0A140NDX4; host protein, no construct; the first 170 residues were unresolved in the cryo-EM map and only the catalytic domain was modelled; also called dihydrolipoyllysine-residue succinyltransferase; contaminant nanoparticle; source: endogenous, E. coli BL21(DE3) expression host; co-purified as a contaminant with …
stoichiometry N: 24
